Target: Recombinant active ACE2-Fc (ACRO biosystems, AC2-H5257) (human) (UniProt Q9BYF1)
Assay: SPR

Chain of UniProt Q9BYF1 (Q9BYF1 18-740): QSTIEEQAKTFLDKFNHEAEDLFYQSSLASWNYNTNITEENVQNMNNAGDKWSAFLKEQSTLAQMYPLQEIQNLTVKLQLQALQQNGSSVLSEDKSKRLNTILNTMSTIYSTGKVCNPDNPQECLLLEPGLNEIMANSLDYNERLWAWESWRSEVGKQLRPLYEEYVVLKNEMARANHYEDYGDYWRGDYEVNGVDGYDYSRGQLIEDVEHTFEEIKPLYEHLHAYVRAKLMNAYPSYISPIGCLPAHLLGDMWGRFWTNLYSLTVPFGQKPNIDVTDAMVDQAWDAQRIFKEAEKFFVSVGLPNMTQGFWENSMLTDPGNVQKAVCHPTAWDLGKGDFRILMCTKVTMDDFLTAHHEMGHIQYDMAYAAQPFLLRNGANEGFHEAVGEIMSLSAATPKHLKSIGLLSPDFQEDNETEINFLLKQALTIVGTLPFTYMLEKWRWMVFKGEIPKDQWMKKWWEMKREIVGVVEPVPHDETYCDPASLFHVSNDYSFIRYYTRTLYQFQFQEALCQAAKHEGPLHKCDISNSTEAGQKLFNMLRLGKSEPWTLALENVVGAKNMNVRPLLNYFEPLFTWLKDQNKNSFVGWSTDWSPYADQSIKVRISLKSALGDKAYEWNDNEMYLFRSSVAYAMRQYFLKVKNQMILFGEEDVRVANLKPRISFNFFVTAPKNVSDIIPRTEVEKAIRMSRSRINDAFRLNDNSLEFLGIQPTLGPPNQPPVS

Angiotensin II (peptide)
Kd: 117 nM

From article PMC8432736
